Targets include S173A; N171A; E174D; N171H; K175F; A170P; K175R; E168A; WT; N176A; P172A; E174Y; S177A; A170S.
What all share (assay): FACS, mAb 5 µg/ml, CD20 variant on transfected HEK293 cells
On the technique in general: A flow cytometer gives signals particle by particle.

These results are taken from patent publication US20260009051A1.

Chain of E174D (CD20, as listed by the source E174D E174D limits assumed): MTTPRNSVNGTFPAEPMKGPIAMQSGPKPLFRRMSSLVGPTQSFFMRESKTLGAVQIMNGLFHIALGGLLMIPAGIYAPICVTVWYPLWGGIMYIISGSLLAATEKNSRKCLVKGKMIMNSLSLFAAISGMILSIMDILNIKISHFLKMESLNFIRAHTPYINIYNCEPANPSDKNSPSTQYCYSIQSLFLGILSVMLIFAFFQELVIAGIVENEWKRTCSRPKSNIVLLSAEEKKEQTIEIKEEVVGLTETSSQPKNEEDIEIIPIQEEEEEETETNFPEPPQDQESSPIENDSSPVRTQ
Chain of K175F (CD20, as listed by the source K175F K175F limits assumed): as the sequence (CD20, as listed by the source E174D E174D limits assumed) above, with D174E, K175F counted along it
Chain of N176A (CD20, as listed by the source N176A N176A limits assumed): as the sequence (CD20, as listed by the source E174D E174D limits assumed) above, with D174E, N176A counted along it
Chain of E168A (CD20, as listed by the source E168A E168A limits assumed): as the sequence (CD20, as listed by the source E174D E174D limits assumed) above, with E168A, D174E counted along it
Chain of K175R (CD20, as listed by the source K175R K175R limits assumed): as the sequence (CD20, as listed by the source E174D E174D limits assumed) above, with D174E, K175R counted along it
Chain of S173A (CD20, as listed by the source S173A S173A limits assumed): as the sequence (CD20, as listed by the source E174D E174D limits assumed) above, with S173A, D174E counted along it
Chain of A170S (CD20, as listed by the source A170S A170S limits assumed): as the sequence (CD20, as listed by the source E174D E174D limits assumed) above, with A170S, D174E counted along it
Chain of E174Y (CD20, as listed by the source E174Y E174Y limits assumed): as the sequence (CD20, as listed by the source E174D E174D limits assumed) above, with D174Y counted along it
Chain of P172A (CD20, as listed by the source P172A P172A limits assumed): as the sequence (CD20, as listed by the source E174D E174D limits assumed) above, with P172A, D174E counted along it
Chain of A170P (CD20, as listed by the source A170P A170P limits assumed): as the sequence (CD20, as listed by the source E174D E174D limits assumed) above, with A170P, D174E counted along it
Chain of S177A (CD20, as listed by the source S177A S177A limits assumed): as the sequence (CD20, as listed by the source E174D E174D limits assumed) above, with D174E, S177A counted along it
Chain of N171A (CD20, as listed by the source N171A N171A limits assumed): as the sequence (CD20, as listed by the source E174D E174D limits assumed) above, with N171A, D174E counted along it
Chain of WT (CD20, as listed by the source limits assumed): as the sequence (CD20, as listed by the source E174D E174D limits assumed) above, with D174E counted along it
Chain of N171H (CD20, as listed by the source N171H N171H limits assumed): as the sequence (CD20, as listed by the source E174D E174D limits assumed) above, with N171H, D174E counted along it

m7D8 (antibody): the % of best binder with S173A was determined as 73%; in the test with N171A, 82%; in the test with E174D, 67%; with N171H it was 86%; with K175F, 71%; with A170P, 62%. In addition, the % of best binder amounted to 71% with K175R; 66% with E168A; 77% with WT; 67% with N176A; 69% with P172A; 80% with E174Y. Besides, the % of best binder is 68% with S177A and 60% with A170S.
In the case of m11B8 (antibody), the % of best binder is 98% with S173A; 100% in the test with N171A; 9% in the test with E174D; 100% with N171H; 94% with K175F; 41% with A170P. The % of best binder with K175R was determined as 89%; with E168A it was 83%; with WT it was 82%; with N176A, 88%; with P172A it was 96%; in the test with E174Y it was 13%. Moreover, the % of best binder was 79% with S177A and 84% with A170S.
With mRTX (antibody), the % of best binder with S173A was 2%; in the test with N171A, 3%; with E174D, 52%; in the test with N171H it was 5%; with K175F it was 67%; in the test with A170P it was 42%. For the same substance, the % of best binder in the test with K175R was 65%; in the test with E168A, 52%; with WT, 77%; with N176A, 65%; with P172A, 25%; with E174Y, 29%. Also, the % of best binder with S177A was found to be 63%; with A170S, 60%.
On to B1 (antibody), for which the % of best binder with S173A is 55%; with N171A, 46%; with E174D, 57%; with N171H, 58%; in the test with K175F, 46%; with A170P, 38%. The % of best binder with K175R turned out to be 53%; with E168A, 48%; with WT, 59%; with N176A, 2%; with P172A it was 31%; with E174Y, 51%. Also, the % of best binder with S177A was determined as 40%; with A170S it was 55%.
